Consider one molecule from article PMC7972864, “Fucoxanthin Prevents 6-OHDA-Induced Neurotoxicity by Targeting Keap1” (Oxidative Medicine and Cellular Longevity, 2021).

This test deals with human Keap1 protein (human), Q14145. Nature of the test: BLI. To be noted: natural protein; chains chain; biotinylated (site not stated); remark: other sources report otherwise.
Sequence of human Keap1 protein (human), Q14145 (Q14145 whole entry): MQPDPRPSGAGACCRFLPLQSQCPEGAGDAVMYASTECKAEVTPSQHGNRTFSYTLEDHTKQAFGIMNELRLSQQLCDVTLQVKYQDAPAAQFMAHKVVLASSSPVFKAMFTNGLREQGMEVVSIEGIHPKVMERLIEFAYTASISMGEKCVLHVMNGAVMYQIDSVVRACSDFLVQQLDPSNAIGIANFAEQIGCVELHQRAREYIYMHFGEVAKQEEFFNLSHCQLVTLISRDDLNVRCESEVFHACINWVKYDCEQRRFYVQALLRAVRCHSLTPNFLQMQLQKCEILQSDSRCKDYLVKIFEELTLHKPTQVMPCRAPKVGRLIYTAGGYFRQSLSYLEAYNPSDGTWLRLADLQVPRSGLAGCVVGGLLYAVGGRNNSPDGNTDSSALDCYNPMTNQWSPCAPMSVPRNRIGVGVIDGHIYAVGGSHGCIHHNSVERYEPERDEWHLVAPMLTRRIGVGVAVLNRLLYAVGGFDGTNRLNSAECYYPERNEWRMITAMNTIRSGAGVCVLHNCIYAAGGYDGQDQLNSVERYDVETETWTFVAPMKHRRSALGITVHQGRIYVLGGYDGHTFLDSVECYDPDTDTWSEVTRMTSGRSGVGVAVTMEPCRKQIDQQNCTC

B1: human Nrf2 protein, Q16236 1-605 (protein)
chain: MMDLELPPPGLPSQQDMDLIDILWRQDIDLGVSREVFDFSQRRKEYELEKQKKLEKERQEQLQKEQEKAFFAQLQLDEETGEFLPIQPAQHIQSETSGSANYSQVAHIPKSDALYFDDCMQLLAQTFPFVDDNEVSSATFQSLVPDIPGHIESPVFIATNQAQSPETSVAQVAPVDLDGMQQDIEQVWEELLSIPELQCLNIENDKLVETTMVPSPEAKLTEVDNYHFYSSIPSMEKEVGNCSPHFLNAFEDSFSSILSTEDPNQLTVNSLNSDATVNTDFGDEFYSAFIAEPSISNSMPSPATLSHSLSELLNGPIDVSDLSLCKAFNQNHPESTAEFNDSDSGISLNTSPSVASPEHSVESSSYGDTLLGLSDSEVEELDSAPGSVKQNGPKTPVHSSGDMVQPLSPSQGQSTHVHDAQCENTPEKELPVSPGHRKTPFTKDKHSSRLEAHLTRDELRAKALHIPFPVEKIINLPVVDFNEMMSKEQFNEAQLALIRDIRRRGKNKVAAQNCRKRKLENIVELEQDLDHLKDEKEKLLKEKGENDKSLHLLKKQLSTLYLEVFSMLRDEDGKPYSPSEYSLQQTRDGNVFLVPKSKKPDVKKN
For orientation: Kd means the free concentration of one partner at which half of the binding sites on the other are occupied at equilibrium, for simple one-to-one binding. A high value points to weaker binding. In turn, B1 displayed a Kd of 12.6 nM.
